Source: patent publication US20250051731A1, “COMPOSITIONS AND METHODS FOR ESTABLISHMENT OF BOVINE-INDUCED PLURIPOTENT STEM CELLS” (University of Connecticut, priority 2021, published 2025)

What was measured:
H3K9me2 = test: Immunostaining of H3K9me2 in bMSCs; assay type: cell-based, bovine; conditions: bMSCs overexpressing human KDM4A vs vector control
Procedure: (§1) Immunostaining: For immunofluorescence, the cells were first fixed in 4% PFA for 15 min at room temperature. Following fixation, the cells were treated with 0.5% Triton X-100 in PBS for 15 min at room temperature for cell membrane permeabilization. After blocking with goat serum (Cell Signaling Technology, Danvers, MA, USA), the cells were incubated in goat serum containing primary antibodies for 2 h at 37° C., followed by secondary antibodies at room temperature for 1 h. Cells were counter-stained with DAPI and imaged under a Nikon fluorescence microscope. Primary antibodies including rabbit anti-OCT4 (Santa Cruz, CA, USA), rabbit anti-SOX2 (Merck Millipore), and mouse anti-NANOG (Merck Millipore) were used at 1:100 dilution while mouse anti-AFP (1:50; Cloud-clone Corp., TX, USA), rabbit anti-TUJ1 (1:500) and mouse anti-SMA (1:400) (Thermo Fisher Scientific) were diluted variously according to their manufacturer's instructions. Alexa Fluor 488 or 594 conjugated goat anti-rabbit or goat anti-mouse secondary antibody (Cell Signaling Technology) were used in 1:1000 dilution. For cell surface marker staining, the cells in different reprogramming conditions were stained with NL557-conjugated TRA-1-60 (1:100), SSEA-3 (1:50; R&D Systems, Minneapolis, MN, USA) and Alexa Fluor 594 conjugated SSEA-4 (1:100; BioLegend, San Diego, CA, USA) according to the manufacturer's protocol.

H3K9me3 = test: Immunostaining of H3K9me3 in bMSCs; assay type: cell-based, bovine; conditions: bMSCs overexpressing human KDM4A vs retroviral vector control
Procedure: as §1

B1: KDM4A: human lysine-specific demethylase 4A overexpressed in bMSCs from pMXs retroviral vector (protein, UniProt O75164 2-1064, looked up)
Lysine-specific demethylase 4A: ASESETLNPSARIMTFYPTMEEFRNFSRYIAYIESQGAHRAGLAKVVPPKEWKPRASYDDIDDLVIPAPIQQLVTGQSGLFTQYNIQKKAMTVREFRKIANSDKYCTPRYSEFEELERKYWKNLTFNPPIYGADVNGTLYEKHVDEWNIGRLRTILDLVEKESGITIEGVNTPYLYFGMWKTSFAWHTEDMDLYSINYLHFGEPKSWYSVPPEHGKRLERLAKGFFPGSAQSCEAFLRHKMTLISPLMLKKYGIPFDKVTQEAGEFMITFPYGYHAGFNHGFNCAESTNFATRRWIEYGKQAVLCSCRKDMVKISMDVFVRKFQPERYKLWKAGKDNTVIDHTLPTPEAAEFLKESELPPRAGNEEECPEEDMEGVEDGEEGDLKTSLAKHRIGTKRHRVCLEIPQEVSQSELFPKEDLSSEQYEMTECPAALAPVRPTHSSVRQVEDGLTFPDYSDSTEVKFEELKNVKLEEEDEEEEQAAAALDLSVNPASVGGRLVFSGSKKKSSSSLGSGSSRDSISSDSETSEPLSCRAQGQTGVLTVHSYAKGDGRVTVGEPCTRKKGSAARSFSERELAEVADEYMFSLEENKKSKGRRQPLSKLPRHHPLVLQECVSDDETSEQLTPEEEAEETEAWAKPLSQLWQNRPPNFEAEKEFNETMAQQAPHCAVCMIFQTYHQVEFGGFNQNCGNASDLAPQKQRTKPLIPEMCFTSTGCSTDINLSTPYLEEDGTSILVSCKKCSVRVHASCYGVPPAKASEDWMCSRCSANALEEDCCLCSLRGGALQRANDDRWVHVSCAVAILEARFVNIAERSPVDVSKIPLPRFKLKCIFCKKRRKRTAGCCVQCSHGRCPTAFHVSCAQAAGVMMQPDDWPFVVFITCFRHKIPNLERAKGALQSITAGQKVISKHKNGRFYQCEVVRLTTETFYEVNFDDGSFSDNLYPEDIVSQDCLQFGPPAEGEVVQVRWTDGQVYGAKFVASHPIQMYQVEFEDGSQLVVKRDDVYTLDEELPKRVKSRLSVASDMRFNEIFTEKEVKQEKKRQRVINSRYREDYIEPALYRAIME
H3K9me2 by immunostaining (H3K9me2): not
H3K9me3 by immunostaining (H3K9me3): reduced
